In IntAct's records for PubMed 22872700:

B1: Contactin-associated protein-like 2 (Homo sapiens), Q9UHC6-1 (parent)
chain: MQAAPRAGCGAALLLWIVSSCLCRAWTAPSTSQKCDEPLVSGLPHVAFSSSSSISGSYSPGYAKINKRGGAGGWSPSDSDHYQWLQVDFGNRKQISAIATQGRYSSSDWVTQYRMLYSDTGRNWKPYHQDGNIWAFPGNINSDGVVRHELQHPIIARYVRIVPLDWNGEGRIGLRIEVYGCSYWADVINFDGHVVLPYRFRNKKMKTLKDVIALNFKTSESEGVILHGEGQQGDYITLELKKAKLVLSLNLGSNQLGPIYGHTSVMTGSLLDDHHWHSVVIERQGRSINLTLDRSMQHFRTNGEFDYLDLDYEITFGGIPFSGKPSSSSRKNFKGCMESINYNGVNITDLARRKKLEPSNVGNLSFSCVEPYTVPVFFNATSYLEVPGRLNQDLFSVSFQFRTWNPNGLLVFSHFADNLGNVEIDLTESKVGVHINITQTKMSQIDISSGSGLNDGQWHEVRFLAKENFAILTIDGDEASAVRTNSPLQVKTGEKYFFGGFLNQMNNSSHSVLQPSFQGCMQLIQVDDQLVNLYEVAQRKPGSFANVSIDMCAIIDRCVPNHCEHGGKCSQTWDSFKCTCDETGYSGATCHNSIYEPSCEAYKHLGQTSNYYWIDPDGSGPLGPLKVYCNMTEDKVWTIVSHDLQMQTPVVGYNPEKYSVTQLVYSASMDQISAITDSAEYCEQYVSYFCKMSRLLNTPDGSPYTWWVGKANEKHYYWGGSGPGIQKCACGIERNCTDPKYYCNCDADYKQWRKDAGFLSYKDHLPVSQVVVGDTDRQGSEAKLSVGPLRCQGDRNYWNAASFPNPSSYLHFSTFQGETSADISFYFKTLTPWGVFLENMGKEDFIKLELKSATEVSFSFDVGNGPVEIVVRSPTPLNDDQWHRVTAERNVKQASLQVDRLPQQIRKAPTEGHTRLELYSQLFVGGAGGQQGFLGCIRSLRMNGVTLDLEERAKVTSGFISGCSGHCTSYGTNCENGGKCLERYHGYSCDCSNTAYDGTFCNKDVGAFFEEGMWLRYNFQAPATNARDSSSRVDNAPDQQNSHPDLAQEEIRFSFSTTKAPCILLYISSFTTDFLAVLVKPTGSLQIRYNLGGTREPYNIDVDHRNMANGQPHSVNITRHEKTIFLKLDHYPSVSYHLPSSSDTLFNSPKSLFLGKVIETGKIDQEIHKYNTPGFTGCLSRVQFNQIAPLKAALRQTNASAHVHIQGELVESNCGASPLTLSPMSSATDPWHLDHLDSASADFPYNPGQGQAIRNGVNRNSAIIGGVIAVVIFTILCTLVFLIRYMFRHKGTYHTNEAKGAESAESADAAIMNNDPNFTETIDESKKEWLI
partner: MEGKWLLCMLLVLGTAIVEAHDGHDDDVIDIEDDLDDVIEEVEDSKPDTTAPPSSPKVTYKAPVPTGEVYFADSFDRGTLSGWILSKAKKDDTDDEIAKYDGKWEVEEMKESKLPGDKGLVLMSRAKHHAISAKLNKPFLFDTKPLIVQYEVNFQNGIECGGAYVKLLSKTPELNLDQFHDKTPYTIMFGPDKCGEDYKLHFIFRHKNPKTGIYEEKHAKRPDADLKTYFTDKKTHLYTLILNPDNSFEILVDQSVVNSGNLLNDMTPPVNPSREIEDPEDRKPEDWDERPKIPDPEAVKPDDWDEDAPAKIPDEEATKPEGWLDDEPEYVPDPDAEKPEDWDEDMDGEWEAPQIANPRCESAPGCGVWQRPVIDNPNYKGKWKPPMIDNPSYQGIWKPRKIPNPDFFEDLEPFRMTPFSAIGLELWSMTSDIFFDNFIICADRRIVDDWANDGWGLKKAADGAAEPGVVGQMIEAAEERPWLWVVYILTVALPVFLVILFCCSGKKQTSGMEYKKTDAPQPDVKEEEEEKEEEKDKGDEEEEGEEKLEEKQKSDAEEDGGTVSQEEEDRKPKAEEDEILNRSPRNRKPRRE

Variants of: B1
Conditions: with calx_human CANX

effect of a mutation on the interaction | Variant
increasing interaction strength | D1129H
